Test results: article PMC11032447

What was measured:
Experiment in all cases: ITC; secretagogin construct in the cell (10-100 µM), partner in the syringe (80-1500 µM); 25 mM HEPES pH 8.0, 150 mM NaCl, 2 mM CaCl2; 20 °C; MicroCal iTC200; single-site binding model
[1] = target: mouse secretagogin L270A (mouse) (UniProt Q91WD9)
[2] = target: mouse secretagogin V233A (mouse) (UniProt Q91WD9)
[3] = target: mouse secretagogin M229A (mouse) (UniProt Q91WD9)
[4] = target: mouse secretagogin R198A (mouse) (UniProt Q91WD9)
Chain of mouse secretagogin R198A (mouse) (Q91WD9 whole entry R198A): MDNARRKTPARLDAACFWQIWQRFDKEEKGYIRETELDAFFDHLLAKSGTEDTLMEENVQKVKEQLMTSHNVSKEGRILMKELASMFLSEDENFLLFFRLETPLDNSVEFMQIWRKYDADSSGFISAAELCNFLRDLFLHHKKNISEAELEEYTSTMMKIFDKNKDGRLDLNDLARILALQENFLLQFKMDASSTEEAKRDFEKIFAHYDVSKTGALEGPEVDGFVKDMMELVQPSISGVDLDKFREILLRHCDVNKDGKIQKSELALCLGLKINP

[5] = target: mouse secretagogin M229E (mouse) (UniProt Q91WD9)
Chain of mouse secretagogin M229E (mouse) (Q91WD9 whole entry M229E): as the sequence (Q91WD9 whole entry R198A) above, with A198R, M229E counted along it

[6] = target: mouse secretagogin (mouse) (UniProt Q91WD9)
Chain of mouse secretagogin (mouse) (Q91WD9 whole entry): as the sequence (Q91WD9 whole entry R198A) above, with A198R counted along it

Chain of mouse secretagogin V233A (mouse) (Q91WD9 whole entry V233A): as the sequence (Q91WD9 whole entry R198A) above, with A198R, V233A counted along it
Chain of mouse secretagogin M229A (mouse) (Q91WD9 whole entry M229A): as the sequence (Q91WD9 whole entry R198A) above, with A198R, M229A counted along it
Chain of mouse secretagogin L270A (mouse) (Q91WD9 whole entry L270A): as the sequence (Q91WD9 whole entry R198A) above, with A198R, L270A counted along it

Substance: Hb helix of the Habc domain of mouse syntaxin-4, His6-tagged (domain or fragment)
- Kd [1]: 16.2 µM
- Kd [2]: 0.125 µM
- Kd [3]: 1.62 µM
- Kd [4]: 0.808 µM
- Kd [5]: 5.21 µM

Substance: Ha helix of the Habc domain of mouse syntaxin-4, His6-tagged (from UniProt P70452 1-298) (domain or fragment)
- Kd [6]: 6.67 µM

Substance: Habc domain of mouse syntaxin-4, His6-tagged (from UniProt P70452 1-298) (domain or fragment)
- Kd [6]: 14.1 µM
